Data from patent US20220348647A1 (published 2022).
Numbering of substitutions follows the chain as printed. Names may count otherwise.

T1: cyno CCL17 (Macaca fascicularis (cyno), UniProt Q8HYP9 24-94 (rhesus entry))
T1 construct: Biotinylated in the Fab ELISAs; also called cCCL17; cCCL-17
T1 sequence: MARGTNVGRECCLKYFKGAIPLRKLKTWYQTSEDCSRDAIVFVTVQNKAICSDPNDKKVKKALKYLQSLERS

T2: human CCL17 (human, UniProt Q92583 24-94)
T2 construct: Biotinylated in the Fab ELISAs; also called huCCL17; Bt-huCCL17
T2 sequence: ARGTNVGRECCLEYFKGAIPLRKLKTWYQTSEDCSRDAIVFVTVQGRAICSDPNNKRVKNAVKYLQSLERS

B1: C17B234 (antibody, V domains shown)
VH: EVQLVQSGAEVKKPGESLKISCKGSGYSFTSYWIGWVRQMPGKGLEWMGIIDPSDSDTRYSPSFQGQVTISADKSISTAYLQWSSLKASDTAMYYCARVGPADVWDSFDYWGQGTLVTVSS
VL: DIVMTQSPDSLAVSLGERATINCKSSQSVLLSFDNINKLAWYQQKPGQPPKLLIYNASTRESGVPDRFSGSGSGTDFTLTISSLQAEDVAVYYCQQFYSVPSTFGQGTKVEIK
notes: Full IgG1, kappa
B2: C17B235 (antibody, V domains shown)
VH: B1 VH
VL: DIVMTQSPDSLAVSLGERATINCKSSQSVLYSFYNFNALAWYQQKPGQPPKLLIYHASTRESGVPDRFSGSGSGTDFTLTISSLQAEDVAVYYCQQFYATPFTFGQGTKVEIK
notes: Full IgG1, kappa
B3: C17B236 (antibody, V domains shown)
VH: B1 VH
VL: B1 VL with F33P, D34W, I36S, K38Q, N56G, F97Y, S99L, V100I
notes: Full IgG1, kappa
B4: C17B237 (antibody, V domains shown)
VH: B1 VH
VL: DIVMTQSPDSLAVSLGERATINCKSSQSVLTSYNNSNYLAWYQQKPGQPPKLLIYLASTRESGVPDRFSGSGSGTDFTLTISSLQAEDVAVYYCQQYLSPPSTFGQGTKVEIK
notes: Full IgG1, kappa
B5: C17B238 (antibody, V domains shown)
VH: B1 VH
VL: DIVMTQSPDSLAVSLGERATINCKSSQSVLISAFNQNPLAWYQQKPGQPPKLLIYDASTRESGVPDRFSGSGSGTDFTLTISSLQAEDVAVYYCQQYQFIPFTFGQGTKVEIK
notes: Full IgG1, kappa
B6: C17B239 (antibody, V domains shown)
VH: B1 VH
VL: B1 VL with L31S, D34T, I36T, K38T, N56H, F97Y, Y98L, S99I, V100Y
notes: Full IgG1, kappa
B7: C17B240 (antibody, V domains shown)
VH: B1 VH
VL: B1 VL with L31Y, F33H, D34V, I36Y, K38A, F97Y, S99T, V100L, S102A
notes: Full IgG1, kappa
B8: C17B241 (antibody, V domains shown)
VH: B1 VH
VL: B1 VL with L31N, D34T, I36N, K38A, N56E, F97T, Y98N, V100I, S102L
notes: Full IgG1, kappa
B9: C17B243 (antibody, V domains shown)
VH: B1 VH
VL: B1 VL with L31N, I36K, K38D, N56E, F97H, Y98W, S99Q, V100T, S102L
notes: Full IgG1, kappa
B10: C17B244 (antibody, V domains shown)
VH: B1 VH
VL: B5 VL with I31S, A33I, F34T, Q36V, P38D, D56T, Q98Y, F99H, I100D
notes: Full IgG1, kappa
B11: C17B242 (antibody, V domains shown)
VH: B1 VH
VL: B1 VL with L31F, F33H, I36L, K38T, N56H, F97Y, S99A, S102Q
notes: Full IgG1, kappa
B12: C17F24 (parent) (antibody, V domains shown)
VH: B1 VH
VL: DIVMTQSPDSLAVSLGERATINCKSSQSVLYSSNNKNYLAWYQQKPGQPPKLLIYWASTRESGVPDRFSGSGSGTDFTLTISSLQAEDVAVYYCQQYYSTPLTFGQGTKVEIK
B13: C17B302 (antibody, human IgG2, kappa, V domains shown)
VH: B1 VH with S107A
VL: DIVMTQSPDSLAVSLGERATINCKSSQSVLLSFDNINKLAWYQQKPGQPPKLLIYDASTRESGVPDRFSGSGSGTDFTLTISSLQAEDVAVYYCQQFYSVPSTFGQGTKVEIKR
B14: C17B311 (antibody, V domains shown)
VH: B1 VH with S107A
VL: B1 VL with N56D
B15: C17B293 (antibody, IgG1, V domains shown)
VH: B1 VH with S107A
VL: B1 VL with N56D
notes: Expressed as IgG1; Heavy chain S100cA (Kabat) paired with the light chain of C17B258; also called C17M293
B16: C17B294 (antibody, IgG1, V domains shown)
VH: B1 VH with S107T
VL: B1 VL with N56D
notes: Expressed as IgG1; Heavy chain S100cT (Kabat) paired with the light chain of C17B258
B17: C17B257 (antibody, IgG1, V domains shown)
VH: B1 VH
VL: B1 VL with N56A
notes: Expressed as IgG1; Light chain N50A (Kabat) variant of C17B234
B18: C17B258 (antibody, IgG1, V domains shown)
VH: B1 VH
VL: B1 VL with N56D
notes: Expressed as IgG1; Light chain N50D (Kabat) variant of C17B234
B19: C17B263 (antibody, IgG1, V domains shown)
VH: B1 VH
VL: B1 VL with N56T
notes: Expressed as IgG1; Light chain N50T (Kabat) variant of C17B234
B20: C17B295 (antibody, IgG1, V domains shown)
VH: B1 VH with D106E
VL: B1 VL with N56D
notes: Expressed as IgG1; Heavy chain D100bE (Kabat) paired with the light chain of C17B258
B21: C17B260 (antibody, IgG1, V domains shown)
VH: B1 VH
VL: B1 VL with N56G
notes: Expressed as IgG1; Light chain N50G (Kabat) variant of C17B234
B22: C17B262 (antibody, IgG1, V domains shown)
VH: B1 VH
VL: B1 VL with N56S
notes: Expressed as IgG1; Light chain N50S (Kabat) variant of C17B234
B23: C17B264 (antibody, IgG1, V domains shown)
VH: B1 VH
VL: B1 VL with N56I
notes: Expressed as IgG1; Light chain N50I (Kabat) variant of C17B234

Target: T1, cyno CCL17
Assay: solution equilibrium affinity (MSD-SEA), TBST, 48 h at 4 °C
Description: (§1) Equal volumes of the anti-hCCL17 mAbs at 40 pM or 200 pM were added to each chemokine dilution to obtain mixtures containing the serial dilution of chemokines starting at a final concentration of […] and a constant concentration (20 pM or 100 pM) of anti-CCL17 antibody. The mixtures were prepared in duplicate and incubated at 4° C. for 48 hours to reach equilibrium. The free antibody was detected using a SECTOR Imager 6000 (Meso Scale Discovery) instrument. The resulting binding curves were fitted to obtain the dissociation equilibrium constant (KD) using the GraphPad Prism software (v 5.01) using a 1:1 binding model to perform nonlinear least-square regression analysis of the data.

Row | Binder | Kd
1 | B1 | 0.23 nM
2 | B2 | 9.5 nM
3 | B3 | 0.297 nM
4 | B4 | 3.07 nM
5 | B5 | 1.46 nM
6 | B6 | 0.63 nM
7 | B7 | 4.6 nM
8 | B8 | 0.583 nM
9 | B9 | 0.677 nM
10 | B10 | 0.565 nM
11 | B11 | 0.384 nM

Target: T2, human CCL17
Assay: as above
Description: as §1

Row | Binder | Kd
12 | B12 | 1 nM
13 | B1 | 0.002 nM
14 | B2 | 0.072 nM
15 | B3 | 0.039 nM
16 | B4 | 0.657 nM
17 | B5 | 0.115 nM
18 | B6 | 0.092 nM
19 | B7 | 0.083 nM
20 | B8 | 0.05 nM
21 | B9 | 0.028 nM
22 | B10 | 0.033 nM
23 | B11 | 0.167 nM

Target: T1, cyno CCL17
Assay: cell-based or functional assay

Row | Binder | IC50 (nM), β-arrestin assay, Hek293 cells co-expressing CCR4, 20 nM CCL17
24 | B13 | 13.4 nM
25 | B1 | 5.39 nM
26 | B3 | 9.5 nM
27 | B14 | 10.3 nM

Target: T2, human CCL17
Assay: cell-based or functional assay

Row | Binder | IC50 (nM), β-arrestin assay, Hek293 cells co-expressing CCR4, 20 nM CCL17
28 | B13 | 13.9 nM
29 | B1 | 8.42 nM
30 | B3 | 6.98 nM
31 | B14 | 10.7 nM

Target: T2, human CCL17
Assay: not stated in the legend (affinities by MSD-SEA in Examples 3 and 4)

Row | Binder | Kd
32 | B1 | ≤ 100 nM
33 | B2 | ≤ 100 nM
34 | B3 | ≤ 100 nM
35 | B6 | ≤ 100 nM
36 | B7 | ≤ 100 nM
37 | B8 | ≤ 100 nM
38 | B9 | ≤ 100 nM
39 | B10 | ≤ 100 nM
40 | B15 | ≤ 100 nM
41 | B16 | ≤ 100 nM

Target: T1, cyno CCL17
Assay: solution equilibrium affinity (MSD-SEA), IgG1
Description: as §1

Row | Binder | Kd
42 | B17 | 0.0656 nM
43 | B18 | 0.0416 nM
44 | B19 | 0.0756 nM
45 | B15 | 0.039 nM
46 | B16 | 0.022 nM
47 | B20 | 29.9 nM
48 | B21 | 0.0364 nM
49 | B22 | 0.0555 nM
50 | B23 | 0.0718 nM

Target: T2, human CCL17
Assay: solution equilibrium affinity (MSD-SEA), IgG1
Description: as §1

Row | Binder | Kd
51 | B17 | 0.0001 nM
52 | B18 | 0.0001 nM
53 | B19 | 0.0001 nM
54 | B15 | < 0.0001 nM
55 | B16 | 0.001 nM
56 | B20 | 0.175 nM
57 | B21 | 0.0005 nM
58 | B22 | 0.0003 nM
59 | B23 | 0.0004 nM

Target: T1, cyno CCL17
Assay: cell-based or functional assay
Remark: another data set of the same source

Row | Binder | IC50 (nM), calcium flux assay in CCRF-CEM cells, 5 ng/ml cyno CCL17
60 | B13 | 0.238 nM
61 | B1 | 0.369 nM
62 | B2 | 0.919 nM
63 | B3 | 0.349 nM
64 | B4 | 0.549 nM
65 | B5 | 0.348 nM
66 | B6 | 0.43 nM
67 | B7 | 0.308 nM
68 | B8 | 0.339 nM
69 | B9 | 0.31 nM
70 | B10 | 0.311 nM
71 | B11 | 0.34 nM
72 | B14 | 0.239 nM

Target: T2, human CCL17
Assay: cell-based or functional assay
Remark: another data set of the same source

Row | Binder | IC50 (nM), calcium flux assay in CCRF-CEM cells, 10 ng/ml human CCL17
73 | B13 | 0.593 nM
74 | B1 | 0.421 nM
75 | B2 | 0.558 nM
76 | B3 | 0.385 nM
77 | B4 | 0.882 nM
78 | B5 | 0.387 nM
79 | B6 | 0.427 nM
80 | B7 | 0.405 nM
81 | B8 | 0.456 nM
82 | B9 | 0.231 nM
83 | B11 | 0.483 nM
84 | B14 | 0.553 nM

Target: T2, human CCL17
Assay: MSD-SEA; affinity for human CCL17 against that for cyno CCL17
Description: as §1

Row | Binder | Fold binding human/cyno CCL17
85 | B1 | 115 fold
86 | B2 | 132 fold
87 | B3 | 7.6 fold
88 | B4 | 4.7 fold
89 | B5 | 12.7 fold
90 | B6 | 6.8 fold
91 | B7 | 55.4 fold
92 | B8 | 11.7 fold
93 | B9 | 24.2 fold
94 | B10 | 17.1 fold
95 | B17 | 656 fold
96 | B18 | 416 fold
97 | B19 | 756 fold
98 | B16 | 22 fold
99 | B20 | 171 fold
100 | B11 | 2.3 fold
101 | B21 | 72.8 fold
102 | B22 | 185 fold
103 | B23 | 180 fold
